Experimental data taken from patent publication US20230013244A1 (BioIncept, LLC, priority 2014, published 2023).

Legend:
Nucleolin (human) = Nucleolin (human) (UniProt P19338); experiment: PIF affinity column + LC-MS/MS, CD8+ cell lysate
[1] = target: Cartilage oligomeric matrix protein (human) (UniProt P49747); experiment: PIF affinity column + LC-MS/MS, CD8+ cell lysate
Cartilage oligomeric matrix protein (human), sequence (P49747 21-757 limits assumed): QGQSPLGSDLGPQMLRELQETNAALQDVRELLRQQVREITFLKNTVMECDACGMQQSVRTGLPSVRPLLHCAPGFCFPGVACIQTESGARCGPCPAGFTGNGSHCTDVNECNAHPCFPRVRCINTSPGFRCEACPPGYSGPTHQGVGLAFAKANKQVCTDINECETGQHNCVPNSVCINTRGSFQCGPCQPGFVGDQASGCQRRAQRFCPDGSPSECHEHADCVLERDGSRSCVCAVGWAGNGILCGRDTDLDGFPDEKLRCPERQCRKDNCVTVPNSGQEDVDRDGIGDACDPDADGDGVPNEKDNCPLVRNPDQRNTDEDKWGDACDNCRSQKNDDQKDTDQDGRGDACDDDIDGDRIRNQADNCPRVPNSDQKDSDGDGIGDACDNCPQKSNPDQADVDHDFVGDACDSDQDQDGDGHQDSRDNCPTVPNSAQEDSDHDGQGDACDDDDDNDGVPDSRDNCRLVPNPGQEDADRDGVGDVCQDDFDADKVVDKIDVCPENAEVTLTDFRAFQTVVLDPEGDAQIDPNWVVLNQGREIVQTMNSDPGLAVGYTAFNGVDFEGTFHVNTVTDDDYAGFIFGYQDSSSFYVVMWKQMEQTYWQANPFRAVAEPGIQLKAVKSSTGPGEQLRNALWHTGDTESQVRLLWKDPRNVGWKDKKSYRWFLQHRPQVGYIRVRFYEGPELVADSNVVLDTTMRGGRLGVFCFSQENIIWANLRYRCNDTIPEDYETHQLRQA

Nucleolin (human), sequence (P19338 2-710 limits assumed): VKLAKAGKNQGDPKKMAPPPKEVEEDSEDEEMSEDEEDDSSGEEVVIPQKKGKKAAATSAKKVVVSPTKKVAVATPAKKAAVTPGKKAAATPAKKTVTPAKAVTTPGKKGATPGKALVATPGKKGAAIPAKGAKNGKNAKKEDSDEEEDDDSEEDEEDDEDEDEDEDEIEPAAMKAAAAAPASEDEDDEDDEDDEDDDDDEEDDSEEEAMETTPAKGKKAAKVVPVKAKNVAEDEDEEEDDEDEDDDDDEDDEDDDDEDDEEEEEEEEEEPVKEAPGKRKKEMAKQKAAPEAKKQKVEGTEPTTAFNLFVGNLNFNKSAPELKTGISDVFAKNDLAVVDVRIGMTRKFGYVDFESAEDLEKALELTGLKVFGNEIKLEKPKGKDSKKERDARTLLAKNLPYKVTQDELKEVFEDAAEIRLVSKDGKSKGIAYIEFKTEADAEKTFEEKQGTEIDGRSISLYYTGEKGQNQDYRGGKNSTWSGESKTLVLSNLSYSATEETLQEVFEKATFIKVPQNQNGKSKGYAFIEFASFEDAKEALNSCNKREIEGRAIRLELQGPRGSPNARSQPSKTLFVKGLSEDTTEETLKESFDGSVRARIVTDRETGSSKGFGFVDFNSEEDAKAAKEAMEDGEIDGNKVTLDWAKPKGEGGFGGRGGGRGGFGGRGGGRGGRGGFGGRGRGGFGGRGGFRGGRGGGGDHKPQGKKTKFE

## PIF-resin (PIF15 affinity ligand on agarose) (peptide)
Nucleolin (human)
  Ave: 1
  Inject 1: 1
  Inject 2: 1
  Inject 3: 1
[1]
  Ave: 4
  Inject 1: 4
  Inject 2: 4
  Inject 3: 5
